The values below come from patent US20120309696A1 (UNIVERSITY OF DENVER, published 2012).

The target in experiment [1] is T1, human melanocortin 2 receptor (hMC2R), V-5 epitope tagged, expressed on CHO cells co-transfected with mouse … (human, UniProt Q01718 1-297). Description: cell-based or functional assay.
Experiment [2] concerns the target T1, human melanocortin 2 receptor (hMC2R), …. Description: cell-based or functional assay. This is another data set of the same source.

T1 sequence (Q01718 whole entry): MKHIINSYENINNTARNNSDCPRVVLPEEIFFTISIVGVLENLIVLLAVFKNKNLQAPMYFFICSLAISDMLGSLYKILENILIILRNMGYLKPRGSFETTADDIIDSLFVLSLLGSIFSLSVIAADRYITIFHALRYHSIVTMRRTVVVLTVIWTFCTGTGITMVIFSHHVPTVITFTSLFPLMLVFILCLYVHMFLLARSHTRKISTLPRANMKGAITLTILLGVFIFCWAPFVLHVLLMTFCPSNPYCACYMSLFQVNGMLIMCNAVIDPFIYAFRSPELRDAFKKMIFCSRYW

B1: ACTH analog SYSMEHFRWGKPVGKKAAAVKVYP (peptide)
peptide: SYSMEHFRWGKPVGKKAAAVKVYP
Turning to B1, the “fold decrease in MC2R activation relative to full-length ACTH (cAMP production in transfected CHO cells)” value in experiment [1] amounted to 100 fold.

B2: ACTH analog SYSMEHFRWAAAAAKKRRPVKVYP (peptide)
peptide: SYSMEHFRWAAAAAKKRRPVKVYP
For the molecule B2, the “fold decrease in MC2R activation relative to full-length ACTH (cAMP production in transfected CHO cells)” value in experiment [1] was 400 fold.

B3: ACTH analog SYSMEHFRWGKPVGAARRPVKVYP (peptide)
peptide: SYSMEHFRWGKPVGAARRPVKVYP
Take B3: in experiment [1], the “fold decrease in MC2R activation relative to full-length ACTH (cAMP production in transfected CHO cells)” value was 100 fold.

B4: ACTH analog SYSMEHFRWGKPVGAAAAAVKVYP (peptide)
peptide: SYSMEHFRWGKPVGAAAAAVKVYP
On to B4, for which, in experiment [2], the “fold decrease in potency in cAMP production against ACTH(1-24)” value turned out to be 1000 fold.
